From US20240325555A1

Tests used:
mouse LIV-1 (mouse) = target: T1, mouse LIV-1 (mouse) (UniProt Q8C145); experiment: FACS, HEK293/Mouse_LIV-1 cells
T1 sequence (looked up): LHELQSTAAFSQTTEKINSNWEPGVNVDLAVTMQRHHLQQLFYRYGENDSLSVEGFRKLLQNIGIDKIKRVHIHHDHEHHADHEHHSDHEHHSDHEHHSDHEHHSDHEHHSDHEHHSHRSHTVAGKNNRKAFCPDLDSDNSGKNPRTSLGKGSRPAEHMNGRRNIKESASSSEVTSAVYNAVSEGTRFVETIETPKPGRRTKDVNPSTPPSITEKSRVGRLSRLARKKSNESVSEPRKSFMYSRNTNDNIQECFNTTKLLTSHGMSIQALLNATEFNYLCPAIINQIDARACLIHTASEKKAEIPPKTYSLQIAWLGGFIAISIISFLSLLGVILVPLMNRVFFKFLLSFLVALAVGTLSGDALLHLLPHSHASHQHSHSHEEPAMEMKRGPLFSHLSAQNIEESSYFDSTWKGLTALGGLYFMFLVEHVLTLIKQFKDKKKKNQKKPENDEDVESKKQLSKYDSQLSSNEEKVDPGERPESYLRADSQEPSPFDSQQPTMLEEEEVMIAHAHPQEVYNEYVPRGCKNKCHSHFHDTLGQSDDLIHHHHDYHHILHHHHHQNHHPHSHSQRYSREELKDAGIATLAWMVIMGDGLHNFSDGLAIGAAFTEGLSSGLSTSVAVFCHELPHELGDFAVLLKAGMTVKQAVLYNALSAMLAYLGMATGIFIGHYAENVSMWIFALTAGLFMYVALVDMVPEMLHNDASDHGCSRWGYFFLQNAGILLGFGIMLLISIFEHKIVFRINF

rat LIV-1 (rat) = target: T2, rat LIV-1 (rat) (UniProt Q4V887); experiment: FACS, HEK293/Rat_LIV-1 cells
T2 sequence (looked up): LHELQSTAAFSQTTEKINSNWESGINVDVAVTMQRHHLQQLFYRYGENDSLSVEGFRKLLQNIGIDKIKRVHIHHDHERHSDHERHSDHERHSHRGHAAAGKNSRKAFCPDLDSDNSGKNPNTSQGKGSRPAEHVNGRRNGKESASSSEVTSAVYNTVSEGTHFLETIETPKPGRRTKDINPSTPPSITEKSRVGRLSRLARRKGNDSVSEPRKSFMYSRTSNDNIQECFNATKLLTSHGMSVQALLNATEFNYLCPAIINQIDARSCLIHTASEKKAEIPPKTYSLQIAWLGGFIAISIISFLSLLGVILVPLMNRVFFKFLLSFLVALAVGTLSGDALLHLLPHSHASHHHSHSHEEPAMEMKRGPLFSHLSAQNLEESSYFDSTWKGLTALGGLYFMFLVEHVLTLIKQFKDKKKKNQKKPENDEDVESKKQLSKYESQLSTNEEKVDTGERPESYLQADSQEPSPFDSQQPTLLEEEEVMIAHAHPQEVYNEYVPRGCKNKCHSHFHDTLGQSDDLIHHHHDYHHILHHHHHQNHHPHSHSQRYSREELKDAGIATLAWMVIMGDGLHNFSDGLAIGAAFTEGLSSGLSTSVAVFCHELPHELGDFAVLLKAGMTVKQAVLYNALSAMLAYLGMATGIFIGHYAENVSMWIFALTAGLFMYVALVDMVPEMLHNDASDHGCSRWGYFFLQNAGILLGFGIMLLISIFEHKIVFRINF

## hIgG1 Isotype (antibody)
Mouse LIV-1 (mouse)
  Top (MFI): 114 MFI
Rat LIV-1 (rat)
  Top (MFI): 119 MFI
